# Data reported in the supplement of paper PMC10567573.
# B1: KRT18 (parent)
# chain: RVRSLETENRRLESKIREHLEKKG
# B2: ZNF649 (parent)
# chain: YHTGKTPFVCPECGQPCSQKSGLI
# Variants of: B1
# Experiment: protein stability index of a GFP-peptide fusion (GPS, HEK-293T) (PSI 1-6); higher = more stable
# Conditions: c terminus: a fixed tail appended
# 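Further: lentivirally expressed fusions sorted by FACS into six bins by GFP to DsRed ratio, PSI derived from sequencing read proportions per bin multiplied by bin number.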
row,Variant,protein stability index
1,EVRSLETENRRLESKIREHLEKKG,3.5
2,DVRSLETENRRLESKIREHLEKKG,4.9
3,CVRSLETENRRLESKIREHLEKKG,4.66

# Variants of: B2
# Experiment: as above
# Conditions: c terminus: a fixed tail appended
row,Variant,protein stability index
1,YHTGKTNFVCPECGQPCSQKSGLI,1.98
2,YHTGKTDFVCPECGQPCSQKSGLI,2.05
3,YHTGKTSFVCPECGQPCSQKSGLI,1.6
4,YHTGKTWFVCPECGQPCSQKSGLI,2.04
5,YHTGKTPFVMPECGQPCSQKSGLI,1.53
6,YHTGKTPFVDPECGQPCSQKSGLI,1.61
7,YHTGKTPFVSPECGQPCSQKSGLI,2.85
8,YHTGKTPFVVPECGQPCSQKSGLI,1.81
9,YHTGKTPFVNPECGQPCSQKSGLI,2.23
10,YHTGKTPFVGPECGQPCSQKSGLI,2.31
11,YHTGKTPFVTPECGQPCSQKSGLI,2.37
12,YHTGKTPFVEPECGQPCSQKSGLI,1.33
13,YHTGKTPFVIPECGQPCSQKSGLI,2.33
14,YHTGKTPFVCPECGQPCSQKFGLI,1.89
15,YHTGKTPFVCPECGQPCSQKQGLI,1.56
16,YHTGKTPFVCPECGQPCSQKYGLI,2.56
17,YHTGKTPFVCPECGQPCSQKRGLI,1.92
18,YHTGKTPFVCPECGQPCSQKAGLI,1.4
19,YHTGKTPFVCPECGQPCSQKHGLI,1.81
20,YHTGKTPFVCPECGQPCSQKVGLI,1.6
21,YHTGKTPIVCPECGQPCSQKSGLI,2.24
22,YHTGKTPMVCPECGQPCSQKSGLI,1.62
23,YHTGKTPGVCPECGQPCSQKSGLI,1.8
24,YHTGKTPVVCPECGQPCSQKSGLI,1.78

row,Variant,protein stability index
1,YHTGKTPQVCPECGQPCSQKSGLI,2.69
2,YHTGKTPHVCPECGQPCSQKSGLI,2.41
3,YHTGKTPTVCPECGQPCSQKSGLI,1.67
4,YHTGKTPCVCPECGQPCSQKSGLI,1.83
5,YHTGKTPDVCPECGQPCSQKSGLI,2.17
6,YHTGKTPEVCPECGQPCSQKSGLI,2.52
7,YHTGKTPYVCPECGQPCSQKSGLI,1.54
8,YHTGKTPRVCPECGQPCSQKSGLI,2.09
9,YHTGKTPPVCPECGQPCSQKSGLI,2.46
10,YHTGKTPFKCPECGQPCSQKSGLI,1.58
11,YHTGKTPFACPECGQPCSQKSGLI,3.38
12,YHTGKTPFLCPECGQPCSQKSGLI,2.99
13,YHTGKTPFECPECGQPCSQKSGLI,1.61
14,YHTGKTPFDCPECGQPCSQKSGLI,2.39
15,YHTGKTPFQCPECGQPCSQKSGLI,2.02
16,YHTGKTPFVCPECGHPCSQKSGLI,2.23
17,YHTGKTPFVCPECGCPCSQKSGLI,1.89
18,YHTGKTPFVCPECGMPCSQKSGLI,2.16
19,YHTGKTPFVCPECGKPCSQKSGLI,2.35
20,YHTGKTPFVCPECGRPCSQKSGLI,1.63
21,YHTGKTPFVCPECGWPCSQKSGLI,1.83
22,YHTGKDPFVCPECGQPCSQKSGLI,1.92
23,YHTGKSPFVCPECGQPCSQKSGLI,1.53
24,YHTGKGPFVCPECGQPCSQKSGLI,1.71

row,Variant,protein stability index
1,YHTGKQPFVCPECGQPCSQKSGLI,2.96
2,YHTGKWPFVCPECGQPCSQKSGLI,1.96
3,YHTGKFPFVCPECGQPCSQKSGLI,2.42
4,YHTGKEPFVCPECGQPCSQKSGLI,2.89
5,YHTGKAPFVCPECGQPCSQKSGLI,2.07
6,YHTGKPPFVCPECGQPCSQKSGLI,2.19
7,YHTGKTPFVCPICGQPCSQKSGLI,1.91
8,YHTGKTPFVCPLCGQPCSQKSGLI,2.16
9,YHTGKTPFVCPNCGQPCSQKSGLI,1.53
10,YHTGKTPFVCPTCGQPCSQKSGLI,2.07
11,YHTGKTPFVCPHCGQPCSQKSGLI,1.54
12,YHTGKTPFVCPDCGQPCSQKSGLI,3.08
13,YHTGKTPFVCPKCGQPCSQKSGLI,2.35
14,YHTGSTPFVCPECGQPCSQKSGLI,2.62
15,YHTGGTPFVCPECGQPCSQKSGLI,2.54
16,YHTGMTPFVCPECGQPCSQKSGLI,2.44
17,YHTGQTPFVCPECGQPCSQKSGLI,1.86
18,YHTGHTPFVCPECGQPCSQKSGLI,1.86
19,YHTGFTPFVCPECGQPCSQKSGLI,1.88
20,YHTGATPFVCPECGQPCSQKSGLI,1.62
21,YHTGLTPFVCPECGQPCSQKSGLI,2
22,YHTGKTPFVCPECGQPCSQKSGRI,1.92
23,YHTGKTPFVCPECGQPCSQKSGKI,2.56
24,YHTGKTPFVCPECGQPCSQKSGVI,2.58

row,Variant,protein stability index
1,YHTGKTPFVCPECGQPCSQKSGCI,2.83
2,YHTGKTPFVCPECGQPCSQKSGGI,4.1
3,YHTGKTPFVCPECGQPCSQKSGEI,1.03
4,YHTGKTPFVCPECGQPCSQKSGDI,2.12
5,YHTGKTPFVCPECGQPCSQKSGMI,1.46
6,YHTGKTPFVCPECGQPCSQKSGTI,2.2
7,YHTGKTPFVCPECGQPCSQKSGNI,3.38
8,YHTGKTPFVCPECGQPCSQKSGWI,1.16
9,YHTGKTPFVCPEPGQPCSQKSGLI,2.27
10,YHTGKTPFVCPEQGQPCSQKSGLI,2.54
11,YHTGKTPFVCPEMGQPCSQKSGLI,2.98
12,YHTGKTPFVCPESGQPCSQKSGLI,1.62
13,YHTAKTPFVCPECGQPCSQKSGLI,1.49
14,YHTQKTPFVCPECGQPCSQKSGLI,1.51
15,YHTHKTPFVCPECGQPCSQKSGLI,1.96
16,YHTLKTPFVCPECGQPCSQKSGLI,2.41
17,YHTMKTPFVCPECGQPCSQKSGLI,1.89
18,YHTKKTPFVCPECGQPCSQKSGLI,2.18
19,YHTRKTPFVCPECGQPCSQKSGLI,1.62
20,YHTTKTPFVCPECGQPCSQKSGLI,2.62
21,YHTNKTPFVCPECGQPCSQKSGLI,1.67
22,YHTVKTPFVCPECGQPCSQKSGLI,2.88
23,YHTDKTPFVCPECGQPCSQKSGLI,2.48
24,YHTGKTPFVCPECGQPCSQKSGLM,1.84

row,Variant,protein stability index
1,YHTGKTPFVCPECGQPCSQKSGLD,1.36
2,YHTGKTPFVCPECGQPCSQKSGLL,1.52
3,YHTGKTPFVCPECGQPCSQKSGLS,1.45
4,YHTGKTPFVCPECGQPCSQKSGLF,2.92
5,YHTGKTPFVCPECGQPFSQKSGLI,1.59
6,YHTGKTPFVCPECGQPASQKSGLI,3.38
7,YHTGKTPFVCPECGQPKSQKSGLI,3.83
8,YHTGKTPFVCPECGQPPSQKSGLI,2.54
9,YHTGKTPFVCPECGQPTSQKSGLI,2.04
10,YHTGKTPFVCPECGQPYSQKSGLI,2.35
11,YHTGKTPFVCPECGQPMSQKSGLI,2.14
12,YHTGKTPFVCPECGQPQSQKSGLI,1.96
13,YHTGKTPFVCPECGQPISQKSGLI,2.01
14,YHTGKTPFVCPECGQPLSQKSGLI,1.66
15,YHTGKTPFVCPECGQPCSQESGLI,1.35
16,YHTGKTPFVCPECGQPCSQCSGLI,4.04
17,YHTGKTPFVCPECGQPCSQHSGLI,2.43
18,YHTGKTPFVCPECGQPCSQASGLI,2.05
19,YHTGKTPFVCPECGQPCSQYSGLI,3.04
20,YHTGKTPFVCPECGQPCSQSSGLI,2.53
21,YHTGKTPFVCPECGQPCSQQSGLI,3.76
22,MHTGKTPFVCPECGQPCSQKSGLI,1.65
23,AHTGKTPFVCPECGQPCSQKSGLI,3.92
24,SHTGKTPFVCPECGQPCSQKSGLI,3.72

row,Variant,protein stability index
1,KHTGKTPFVCPECGQPCSQKSGLI,2.72
2,CHTGKTPFVCPECGQPCSQKSGLI,3.52
3,EHTGKTPFVCPECGQPCSQKSGLI,3.71
4,IHTGKTPFVCPECGQPCSQKSGLI,2.69
5,YHTGKTPFVCPECGQPCSAKSGLI,1.58
6,YHTGKTPFVCPECGQPCSIKSGLI,1.57
7,YHTGKTPFVCPECGQPCSHKSGLI,2.2
8,YHTGKTPFVCPECGQPCSGKSGLI,1.49
9,YHTGKTPFVCPECGQPCSSKSGLI,2.96
10,YHTGKTPFVCPECGQPCSKKSGLI,1.29
11,YHTGKTPFVCPECGQPCSCKSGLI,2.69
12,YHTGKTPFVCPECGQPCSFKSGLI,2
13,YHTGKTPFVCPECGQPCSDKSGLI,2.37
14,YHTGKTPFVCPECGQCCSQKSGLI,4.29
15,YHTGKTPFVCPECGQSCSQKSGLI,1.9
16,YHTGKTPFVCPECGQDCSQKSGLI,1.91
17,YHTGKTPFVCPECGQHCSQKSGLI,2.65
18,YHTGKTPFVCPECGQVCSQKSGLI,2.44
19,YHTGKTPFVCPECGQKCSQKSGLI,1.98
20,YHTGKTPFVCDECGQPCSQKSGLI,1.4
21,YHTGKTPFVCIECGQPCSQKSGLI,1.69
22,YHTGKTPFVCRECGQPCSQKSGLI,1.79
23,YHTGKTPFVCKECGQPCSQKSGLI,2.46
24,YHTGKTPFVCFECGQPCSQKSGLI,2.44

row,Variant,protein stability index
1,YHTGKTPFVCHECGQPCSQKSGLI,2.16
2,YHTGKTPFVCCECGQPCSQKSGLI,1.65
3,YHTGKTPFVCEECGQPCSQKSGLI,1.61
4,YHTGKTPFVCPECEQPCSQKSGLI,1.95
5,YHTGKTPFVCPECFQPCSQKSGLI,1.94
6,YHTGKTPFVCPECYQPCSQKSGLI,2.27
7,YHTGKTPFVCPECTQPCSQKSGLI,3.65
8,YHTGKTPFVCPECVQPCSQKSGLI,2.06
9,YHTGKTPFVCPECAQPCSQKSGLI,2.16
10,YHTGKTPFVCPECGQPCSQKSCLI,2.19
11,YHTGKTPFVCPECGQPCSQKSLLI,2.97
12,YHTGKTPFVCPECGQPCSQKSPLI,2.91
13,YHTGKTPFVCPECGQPCSQKSFLI,2.34
14,YHTGKTPFVCPECGQPCSQKSELI,2.32
15,YHTGKTPFVCPECGQPCSQKSTLI,1.65
16,YHTGKTPFVCPECGQPCSQKSYLI,3
17,YHTGKTPFVCPECGQPCSQKSWLI,1.63
18,YMTGKTPFVCPECGQPCSQKSGLI,2.51
19,YFTGKTPFVCPECGQPCSQKSGLI,2.25
20,YKTGKTPFVCPECGQPCSQKSGLI,2.76
21,YGTGKTPFVCPECGQPCSQKSGLI,1.98
22,YNTGKTPFVCPECGQPCSQKSGLI,2.39
23,YYTGKTPFVCPECGQPCSQKSGLI,2.42
24,YPTGKTPFVCPECGQPCSQKSGLI,2.15

row,Variant,protein stability index
1,YETGKTPFVCPECGQPCSQKSGLI,3.55
2,YHDGKTPFVCPECGQPCSQKSGLI,2.68
3,YHCGKTPFVCPECGQPCSQKSGLI,2.38
4,YHEGKTPFVCPECGQPCSQKSGLI,2.85
5,YHHGKTPFVCPECGQPCSQKSGLI,2.78
6,YHKGKTPFVCPECGQPCSQKSGLI,2.87
7,YHLGKTPFVCPECGQPCSQKSGLI,1.76
8,YHVGKTPFVCPECGQPCSQKSGLI,2.46
9,YHTGKTPFVCPECGQPCWQKSGLI,1.82
10,YHTGKTPFVCPECGQPCAQKSGLI,2.31
11,YHTGKTPFVCPECGQPCMQKSGLI,3.02
12,YHTGKTPFVCPECGQPCPQKSGLI,2.26
13,YHTGKTPFVCPECGQPCKQKSGLI,1.46
14,YHTGKTPFVCPECGQPCCQKSGLI,2.08
15,YHTGKTPFVCPECGQPCFQKSGLI,2.27
16,YHTGKTPFVCPECGQPCYQKSGLI,2.4
17,YHTGKTPFVCPECGQPCQQKSGLI,1.49
